Source: PMC3994028

Target: non-muscle myosin IIB (NM IIB) (rat (endogenous in hippocampal neurons of Sprague-Dawley rats and in PC12)) (UniProt Q9JLT0)
Experiment: proximity ligation; Duolink in situ PLA on fixed, permeabilised cultured hippocampal neurons (growth cones); primary antibodies against βPIX (or kalirin) and NM IIB, or βPIX and GIT; with or without 50 µM BBS for 15 or 30 min

Chain of UniProt Q9JLT0 (Q9JLT0 whole entry): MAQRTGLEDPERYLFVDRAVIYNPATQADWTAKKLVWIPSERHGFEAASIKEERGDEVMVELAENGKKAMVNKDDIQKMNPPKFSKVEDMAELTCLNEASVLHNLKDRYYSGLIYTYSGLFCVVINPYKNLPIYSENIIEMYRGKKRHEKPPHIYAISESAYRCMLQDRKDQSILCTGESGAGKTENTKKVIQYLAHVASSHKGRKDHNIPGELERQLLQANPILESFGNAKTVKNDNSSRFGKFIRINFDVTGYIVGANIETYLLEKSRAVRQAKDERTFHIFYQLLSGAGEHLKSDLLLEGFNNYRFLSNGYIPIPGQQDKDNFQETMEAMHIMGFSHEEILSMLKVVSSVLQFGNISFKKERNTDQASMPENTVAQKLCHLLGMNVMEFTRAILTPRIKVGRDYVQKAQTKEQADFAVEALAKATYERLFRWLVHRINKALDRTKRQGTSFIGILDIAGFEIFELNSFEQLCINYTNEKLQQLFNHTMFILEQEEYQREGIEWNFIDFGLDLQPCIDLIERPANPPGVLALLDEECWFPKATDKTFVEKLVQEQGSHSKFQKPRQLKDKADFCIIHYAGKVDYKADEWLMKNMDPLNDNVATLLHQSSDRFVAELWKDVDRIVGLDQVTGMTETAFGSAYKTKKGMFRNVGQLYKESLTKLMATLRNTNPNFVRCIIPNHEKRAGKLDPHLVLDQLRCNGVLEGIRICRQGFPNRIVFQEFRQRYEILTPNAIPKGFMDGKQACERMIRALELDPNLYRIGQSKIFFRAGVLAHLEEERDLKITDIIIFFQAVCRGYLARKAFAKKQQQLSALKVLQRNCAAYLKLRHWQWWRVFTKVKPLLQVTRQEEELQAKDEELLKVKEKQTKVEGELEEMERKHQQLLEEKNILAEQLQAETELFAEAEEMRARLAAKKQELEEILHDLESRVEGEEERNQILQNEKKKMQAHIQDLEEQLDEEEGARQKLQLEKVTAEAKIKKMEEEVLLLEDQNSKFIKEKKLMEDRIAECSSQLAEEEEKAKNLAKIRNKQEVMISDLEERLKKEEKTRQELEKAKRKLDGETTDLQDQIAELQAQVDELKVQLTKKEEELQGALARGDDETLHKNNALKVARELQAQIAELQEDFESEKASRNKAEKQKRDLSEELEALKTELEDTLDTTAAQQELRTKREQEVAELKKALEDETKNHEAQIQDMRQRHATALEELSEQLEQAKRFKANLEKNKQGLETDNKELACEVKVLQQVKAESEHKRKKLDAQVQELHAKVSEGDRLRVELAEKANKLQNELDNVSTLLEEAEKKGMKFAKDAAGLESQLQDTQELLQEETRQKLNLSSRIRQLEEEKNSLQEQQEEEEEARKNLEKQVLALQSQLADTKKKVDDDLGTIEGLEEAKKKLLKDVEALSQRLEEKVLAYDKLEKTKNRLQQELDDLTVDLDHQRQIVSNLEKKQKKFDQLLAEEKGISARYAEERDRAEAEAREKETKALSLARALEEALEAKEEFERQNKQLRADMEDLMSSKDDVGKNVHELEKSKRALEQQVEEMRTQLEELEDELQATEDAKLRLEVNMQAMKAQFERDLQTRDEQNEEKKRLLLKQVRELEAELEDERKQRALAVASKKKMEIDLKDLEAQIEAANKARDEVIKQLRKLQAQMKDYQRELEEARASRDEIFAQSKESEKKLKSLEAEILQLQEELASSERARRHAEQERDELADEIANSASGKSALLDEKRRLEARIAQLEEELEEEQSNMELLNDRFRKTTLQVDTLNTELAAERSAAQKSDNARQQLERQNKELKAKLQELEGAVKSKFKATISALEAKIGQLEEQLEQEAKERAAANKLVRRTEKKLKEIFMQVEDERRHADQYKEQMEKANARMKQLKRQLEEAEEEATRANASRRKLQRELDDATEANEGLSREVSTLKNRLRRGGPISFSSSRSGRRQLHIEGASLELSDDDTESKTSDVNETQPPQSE

- PLA fluorescence intensity in the actin-positive area 30 min after BBS, percent of untreated growth cones (% of untreated): 51
Substance: βPIX (endogenous, hippocampal neurons) (from UniProt O55043 1-646) (natural protein)
